Test results published in patent US8101379B2, “Preparation of low bleeding anticoagulant fusion protein and its use” (Institute of Radiation Medicine Academy of Military Medical …, priority 2006, dated 2012).
One block for each molecule: values may come before it.

What was measured:
[1] = test system: TH, hirudin linked at its amino-terminal with an oligopeptide recognizable and cleavable by thrombin
[2] = test system: T1, EPR-HV2 (EH), hirudin HV2 with EPR linked to its N-terminus
T1 sequence: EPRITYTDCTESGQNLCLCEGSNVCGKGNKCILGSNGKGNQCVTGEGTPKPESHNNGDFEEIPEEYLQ

[3] = test system: FH, hirudin linked at its amino-terminal with an oligopeptide recognizable and cleavable by blood coagulation factor Xa
[4] = test system: T2, GVYAR-HV2 (GH), hirudin HV2 with GVYAR linked to its N-terminus
T2 sequence: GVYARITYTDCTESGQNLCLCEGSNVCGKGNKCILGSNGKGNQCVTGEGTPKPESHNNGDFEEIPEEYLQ

[5] = test system: rat carotid artery thrombosis model; experiment: Plasma TT levels in rat carotid artery thrombosis model; format: in vivo; settings: NS group = 100%, X ± SD
Text: (§1) (1) Analyses of GH, EH, FH and TH antithrombotic and hemorrhagic side-effects in rat carotid artery thrombosis model, and the results were listed in table 2 and 3.

tail-cut mouse = experiment: Bleeding time in hemorrhagic model of tail-cut mouse; format: in vivo; settings: for Bleeding time: X ± SD, 15 animals; for influence on hemorrhagic indexes compared with HV2 (in words): statement on table 3 and 4
Protocol: (2) The hemorrhagic side-effects of GH, EH, TH and FH in hemorrhagic model of tail-cut mouse were analyzed, and the results were listed in Table 4.

[6] = test system: rat carotid artery thrombosis model; experiment: Time needed for thrombogenesis in rat carotid artery thrombosis model; format: in vivo; settings: for Time needed for thrombogenesis: rat carotid artery, X ± SD, 10 animals; for time needed for thrombogenesis (in words): rat carotid artery thrombosis model, statement on table 2
Text: as §1

thrombin = thrombin (Homo sapiens, UniProt P00734); experiment: Anticoagulation activity by fibrin-clot method before and after cleavage by thrombin; format: biochemical
Protocol: (§2) EH, GH, FH and TH were cleaved respectively by thrombin, FXa and FXIa, then the activities of anticoagulation were assayed by fibrin-clot method.

FXa = FXa (Homo sapiens, UniProt P00742); experiment: Anticoagulation activity by fibrin-clot method before and after cleavage by FXa; format: biochemical
Sequence of FXa (P00742 235-488 limits assumed): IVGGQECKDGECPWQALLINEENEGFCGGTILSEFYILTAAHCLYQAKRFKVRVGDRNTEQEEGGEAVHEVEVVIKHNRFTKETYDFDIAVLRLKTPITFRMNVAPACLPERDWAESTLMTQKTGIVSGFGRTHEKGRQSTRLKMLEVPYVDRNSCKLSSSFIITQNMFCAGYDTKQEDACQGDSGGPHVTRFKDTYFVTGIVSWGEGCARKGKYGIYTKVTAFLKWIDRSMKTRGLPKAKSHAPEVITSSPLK
Sequence of FXa (P00742 41-179 partner limits assumed): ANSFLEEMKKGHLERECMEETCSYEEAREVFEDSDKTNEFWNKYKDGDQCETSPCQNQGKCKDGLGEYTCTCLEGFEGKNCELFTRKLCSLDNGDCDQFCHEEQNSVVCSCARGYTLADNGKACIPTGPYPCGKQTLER
Protocol: as §2

FXIa = FXIa (Homo sapiens, UniProt P03951); experiment: Anticoagulation activity by fibrin-clot method before and after cleavage by FXIa; format: biochemical
Sequence of FXIa (P03951 388-625 limits assumed): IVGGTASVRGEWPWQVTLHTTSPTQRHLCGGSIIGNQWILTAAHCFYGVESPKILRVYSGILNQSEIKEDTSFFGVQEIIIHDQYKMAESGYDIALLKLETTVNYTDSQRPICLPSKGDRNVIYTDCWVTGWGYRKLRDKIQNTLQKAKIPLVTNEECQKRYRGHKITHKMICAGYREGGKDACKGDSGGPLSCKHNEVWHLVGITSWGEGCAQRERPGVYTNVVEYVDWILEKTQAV
Sequence of FXIa (P03951 19-387 partner limits assumed): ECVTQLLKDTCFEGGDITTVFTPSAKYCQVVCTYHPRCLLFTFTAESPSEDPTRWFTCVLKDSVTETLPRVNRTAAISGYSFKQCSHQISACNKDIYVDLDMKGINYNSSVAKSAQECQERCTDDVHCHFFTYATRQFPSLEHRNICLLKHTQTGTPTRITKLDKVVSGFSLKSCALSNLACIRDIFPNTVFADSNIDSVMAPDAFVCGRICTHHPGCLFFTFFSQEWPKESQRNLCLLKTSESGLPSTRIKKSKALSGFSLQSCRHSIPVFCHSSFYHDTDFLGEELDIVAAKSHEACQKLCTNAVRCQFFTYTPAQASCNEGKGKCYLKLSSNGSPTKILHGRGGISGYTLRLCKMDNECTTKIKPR
Protocol: as §2

Molecule: blood coagulation factor XIa
anticoagulation activity (fibrin-clot method) after 3 h of cleavage [1]: 0
anticoagulation activity (fibrin-clot method) after 6 h of cleavage [1]: 64
anticoagulation activity (fibrin-clot method) at 0 h of cleavage [1]: 0
anticoagulation activity (fibrin-clot method) after 3 h of cleavage [2]: 256
anticoagulation activity (fibrin-clot method) after 6 h of cleavage [2]: 512
anticoagulation activity (fibrin-clot method) at 0 h of cleavage [2]: 0
anticoagulation activity (fibrin-clot method) after 3 h of cleavage [3]: 0
anticoagulation activity (fibrin-clot method) after 6 h of cleavage [3]: 0
anticoagulation activity (fibrin-clot method) at 0 h of cleavage [3]: 0
anticoagulation activity (fibrin-clot method) after 3 h of cleavage [4]: 0
anticoagulation activity (fibrin-clot method) after 6 h of cleavage [4]: 0
anticoagulation activity (fibrin-clot method) at 0 h of cleavage [4]: 0
recognition and cleavage, read by release of anticoagulation activity [4]: GH can be recognizable and cleavable by two blood coagulation factors of FXIa and FXa respectively

Molecule: thrombin
anticoagulation activity (fibrin-clot method) after 3 h of cleavage [1]: 0
anticoagulation activity (fibrin-clot method) after 6 h of cleavage [1]: 0
anticoagulation activity (fibrin-clot method) at 0 h of cleavage [1]: 0
recognition and cleavage, read by release of anticoagulation activity [1]: TH only by thrombin
anticoagulation activity (fibrin-clot method) after 3 h of cleavage [2]: 0
anticoagulation activity (fibrin-clot method) after 6 h of cleavage [2]: 0
anticoagulation activity (fibrin-clot method) at 0 h of cleavage [2]: 0
recognition and cleavage, read by release of anticoagulation activity [2]: EH can be recognizable and cleavable by two blood coagulation factors of thrombin and FXa respectively
anticoagulation activity (fibrin-clot method) after 3 h of cleavage [3]: 2
anticoagulation activity (fibrin-clot method) after 6 h of cleavage [3]: 8
anticoagulation activity (fibrin-clot method) at 0 h of cleavage [3]: 0
anticoagulation activity (fibrin-clot method) after 3 h of cleavage [4]: 2
anticoagulation activity (fibrin-clot method) after 6 h of cleavage [4]: 8
anticoagulation activity (fibrin-clot method) at 0 h of cleavage [4]: 0

Molecule: blood coagulation factor Xa
anticoagulation activity (fibrin-clot method) after 3 h of cleavage [1]: 32
anticoagulation activity (fibrin-clot method) after 6 h of cleavage [1]: 64
anticoagulation activity (fibrin-clot method) at 0 h of cleavage [1]: 0
anticoagulation activity (fibrin-clot method) after 3 h of cleavage [2]: 64
anticoagulation activity (fibrin-clot method) after 6 h of cleavage [2]: 128
anticoagulation activity (fibrin-clot method) at 0 h of cleavage [2]: 0
recognition and cleavage, read by release of anticoagulation activity [2]: EH can be recognizable and cleavable by two blood coagulation factors of thrombin and FXa respectively
anticoagulation activity (fibrin-clot method) after 3 h of cleavage [3]: 64
anticoagulation activity (fibrin-clot method) after 6 h of cleavage [3]: 128
anticoagulation activity (fibrin-clot method) at 0 h of cleavage [3]: 0
recognition and cleavage, read by release of anticoagulation activity [3]: while FH only by FXa
anticoagulation activity (fibrin-clot method) after 3 h of cleavage [4]: 64
anticoagulation activity (fibrin-clot method) after 6 h of cleavage [4]: 128
anticoagulation activity (fibrin-clot method) at 0 h of cleavage [4]: 0
recognition and cleavage, read by release of anticoagulation activity [4]: GH can be recognizable and cleavable by two blood coagulation factors of FXIa and FXa respectively

Molecule: hirudin [HV2, reference compound]
% of TT changes ([5]; 2 mg/kg): 1005.62 ± 361.28 %
Bleeding time (tail-cut mouse; tail-cut mouse, 1.5 mg/kg): 1532.5 ± 420.74 s
Time needed for thrombogenesis ([6]; 2 mg/kg): 1117.00 ± 243.95 s

anticoagulation activity (thrombin; 0 h): 0
anticoagulation activity (thrombin; 3 h): 0
anticoagulation activity (thrombin; 6 h): 0
anticoagulation activity (FXa; 0 h): 0
anticoagulation activity (FXa; 3 h): 64
anticoagulation activity (FXa; 6 h): 128
anticoagulation activity (FXIa; 0 h): 0
anticoagulation activity (FXIa; 3 h): 256
anticoagulation activity (FXIa; 6 h): 512
B1: EH: hirudin (HV2) linked at its amino-terminal with the oligopeptide EPR recognizable and cleavable by both coagulation factors XIa and Xa (protein)
chain: T1 sequence
modifications: ends and bridges not checked
notes: hirudin (HV2) linked at its amino-terminal with the oligopeptide EPR recognizable and cleavable by both coagulation factors XIa and Xa
% of TT changes ([5]; 2 mg/kg): 108.41 ± 12.95%
% of TT changes ([5]; 4 mg/kg): 121.81 ± 13.68 %
influence on hemorrhagic indexes compared with HV2 (in words) (tail-cut mouse): less than that of HV2
Bleeding time (tail-cut mouse; tail-cut mouse, 1.5 mg/kg): 203.89 ± 97.41 s
Bleeding time (tail-cut mouse; tail-cut mouse, 6 mg/kg): 338.77 ± 169.08 s
time needed for thrombogenesis (in words) [6]: prolonged in a dose-dependent manner
Time needed for thrombogenesis ([6]; 2 mg/kg): 964.10 ± 179.68 s
Time needed for thrombogenesis ([6]; 4 mg/kg): 1083.90 ± 227.10 s

anticoagulation activity (thrombin; 0 h): 0
anticoagulation activity (thrombin; 3 h): 2
anticoagulation activity (thrombin; 6 h): 8
anticoagulation activity (FXa; 0 h): 0
anticoagulation activity (FXa; 3 h): 64
anticoagulation activity (FXa; 6 h): 128
anticoagulation activity (FXIa; 0 h): 0
anticoagulation activity (FXIa; 3 h): 0
anticoagulation activity (FXIa; 6 h): 0
B2: GH: hirudin (HV2) linked at its amino-terminal with the oligopeptide GVYAR recognizable and cleavable by both thrombin and coagulation factor Xa (protein)
chain: T2 sequence
modifications: ends and bridges not checked
notes: hirudin (HV2) linked at its amino-terminal with the oligopeptide GVYAR recognizable and cleavable by both thrombin and coagulation factor Xa
% of TT changes ([5]; 2 mg/kg): 104.35 ± 17.21%
% of TT changes ([5]; 4 mg/kg): 114.94 ± 19.82 %
influence on hemorrhagic indexes compared with HV2 (in words) (tail-cut mouse): less than that of HV2
Bleeding time (tail-cut mouse; tail-cut mouse, 1.5 mg/kg): 165.46 ± 142.42 s
Bleeding time (tail-cut mouse; tail-cut mouse, 6 mg/kg): 304 ± 178.99 s
bleeding time compared with FH and TH (in words) (tail-cut mouse; tail-cut mouse, statement): significantly shorter bleeding time than that of FH and TH group
time needed for thrombogenesis (in words) [6]: prolonged in a dose-dependent manner
Time needed for thrombogenesis ([6]; 2 mg/kg): 918.10 ± 204.16 s
Time needed for thrombogenesis ([6]; 4 mg/kg): 1006.7 ± 227.37 s
